The supplement of paper PMC7877785
± gives the uncertainty stated by the source.

Experiment: self-splicing fitness, log relative to wild type (ln ratio); higher = more splicing; Tetrahymena group I intron in knt gene, E. coli kanamycin selection, DiMSum; sequences stand for … in CUCUCU…GGAGGGAAAAGUUAUCAGGCAUGCACCUGGUAGCUAGUCUUUAAACCAAUAGAUUGCAUCGGUUUAAAAGGCAAGACCGUCAAAUUGCGGGAAAGGGGUCAACAGCCGUUCAGUACCAAGUCUCAGGGGAAACUUUGAGAUGGCCUUGCAAAGGGUAUGGUAAUAAGCUGACGGACAUGGUCCUAACCACGCAGCCAAGUCCUAAGUCAACAGAUCUUCUGUUGAUAUGGAUGCAGUUCACAGACUAAAUGUCGGUCGGGGAAGAUGUAUUCUUCUCAUAAGAUAUAGUCGGACCUCUCCUUAAUGGGAGCUAGCGGAUGAAGUGAUGCAACACUGGAGCCGCUGGGAACUAAUUUGUAUGCGAAAGUAUAUUGAUUAGUUUUGGAGUACUCGUGGUCG
Outline: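 The eight P1ex-region nucleotides of an intron in the knt kanamycin-resistance gene on pET-22b(+) were all randomised and the library put into E. coli BL21(DE3). Six replicate transformations were grown overnight at 37°C or 30°C on LB agar with or without 25 μg/mL kanamycin, together with 100 μg/mL carbenicillin, 50 μM IPTG and 0.2% rhamnose. Colonies were pooled and amplicon-sequenced on an Illumina HiSeq 2500. Fitness from DiMSum is the error-weighted combination of wild-type-normalised replicate fold changes, kanamycin over none.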

Sequence | self-splicing fitness (ln) (30 °C) | self-splicing fitness (ln) (37 °C)
UGAUAGCAAUAUUACGUCAC | -4.14 ± 0.22 | -2.81 ± 0.22
CACCAGCAAUAUUACGGGUU | -1.82 ± 0.056 | -1.68 ± 0.081
GCACAGCAAUAUUACGAUCG | -1.08 ± 0.05 | -0.27 ± 0.069
UCUUAGCAAUAUUACGGGCA | -0.387 ± 0.14 | -0.119 ± 0.16
GUACAGCAAUAUUACGGGCU | -3.98 ± 0.3 | -2.1 ± 0.21
GAUGAGCAAUAUUACGUCAA | -3.32 ± 0.28 | -3.44 ± 0.37
GACUAGCAAUAUUACGUCAC | -3.36 ± 0.4 | 
AACAAGCAAUAUUACGGCCA | -0.5 ± 0.077 | -0.412 ± 0.092
UCAUAGCAAUAUUACGAUAA | -1.71 ± 0.21 | -0.636 ± 0.19
UCUAAGCAAUAUUACGUUUG | -3.95 ± 0.3 | -2.4 ± 0.24
GGCUAGCAAUAUUACGGUUU | 0.173 ± 0.078 | 0.305 ± 0.09
AUGUAGCAAUAUUACGAGGA | -3 ± 0.41 | -2.11 ± 0.43
AAAUAGCAAUAUUACGUCCU | -0.0903 ± 0.081 | 0.319 ± 0.1
UCAGAGCAAUAUUACGUCGC | -3.79 ± 0.37 | -2.41 ± 0.35
CAGCAGCAAUAUUACGUUAG | -1.17 ± 0.063 | -0.421 ± 0.078
CCGAAGCAAUAUUACGAUAU | -4.3 ± 0.35 | -3.21 ± 0.26
CCACAGCAAUAUUACGCUUU | -4.05 ± 0.25 | -2.18 ± 0.19
GCCUAGCAAUAUUACGGCGA | -2.64 ± 0.4 | -1.41 ± 0.28
AAUUAGCAAUAUUACGUUAC | -3.18 ± 0.15 | -1.74 ± 0.17
AUGAAGCAAUAUUACGGCAU | -0.0745 ± 0.047 | 0.444 ± 0.063
UUGAAGCAAUAUUACGGGUG | -0.54 ± 0.048 | -0.446 ± 0.066
UUUGAGCAAUAUUACGGUUG | -1.79 ± 0.2 | -0.702 ± 0.36
AACAAGCAAUAUUACGCUCC | -2.2 ± 0.12 | -0.601 ± 0.13
CGGCAGCAAUAUUACGGUUA | -0.164 ± 0.067 | -0.476 ± 0.059
AGAGAGCAAUAUUACGCUCU | -2.47 ± 0.47 | 

Sequence | self-splicing fitness (ln) (30 °C) | self-splicing fitness (ln) (37 °C)
UAGAAGCAAUAUUACGGCCA | -0.205 ± 0.077 | -0.611 ± 0.081
GAUCAGCAAUAUUACGCACC | -0.91 ± 0.18 | -0.086 ± 0.23
UCUGAGCAAUAUUACGAUUU | -2.65 ± 0.22 | -1.31 ± 0.2
CAUCAGCAAUAUUACGGACU | -3.78 ± 0.22 | -0.896 ± 0.13
UUGCAGCAAUAUUACGUCUA | -0.361 ± 0.11 | -0.0705 ± 0.11
CGCGAGCAAUAUUACGCGAU | -3.96 ± 0.24 | -3.09 ± 0.27
UCCGAGCAAUAUUACGGCAG | -3.55 ± 0.38 | -1.44 ± 0.34
GCAAAGCAAUAUUACGCACU | -0.557 ± 0.078 | 0.031 ± 0.092
AUGAAGCAAUAUUACGCUCC | -0.958 ± 0.32 | 0.251 ± 0.35
UCUAAGCAAUAUUACGCGAA | -3.03 ± 0.2 | -1.69 ± 0.16
CCGCAGCAAUAUUACGCCCG | -0.205 ± 0.11 | 0.732 ± 0.16
CUCUAGCAAUAUUACGCAAC | -3.63 ± 0.2 | -3.59 ± 0.28
GUUGAGCAAUAUUACGUCGC | -2.1 ± 0.35 | -1.17 ± 0.29
UCCUAGCAAUAUUACGUGUU | -3.7 ± 0.21 | -2.94 ± 0.19
CAGUAGCAAUAUUACGAUCU | -1.52 ± 0.15 | -1.15 ± 0.19
GGUUAGCAAUAUUACGCUAA | -1.98 ± 0.41 | 
GCGGAGCAAUAUUACGAGGA | -2.26 ± 0.47 | -2.66 ± 0.37
CAGGAGCAAUAUUACGCUAC | -1.78 ± 0.4 | 
AUGCAGCAAUAUUACGAGCC | -2.69 ± 0.2 | -0.935 ± 0.18
UUCUAGCAAUAUUACGGCAA | 0.293 ± 0.1 | 0.334 ± 0.11
CUUGAGCAAUAUUACGUGUU |  | -2.54 ± 0.23
AUGCAGCAAUAUUACGAAUU | -1.9 ± 0.1 | -0.246 ± 0.12
GCCUAGCAAUAUUACGGGGG | -2.92 ± 0.22 | -1.34 ± 0.13
CUUCAGCAAUAUUACGAUUG | -0.473 ± 0.045 | 0.038 ± 0.063
GGUAAGCAAUAUUACGAAUG | -2.23 ± 0.29 | -2.81 ± 0.36

Sequence | self-splicing fitness (ln) (30 °C) | self-splicing fitness (ln) (37 °C)
ACCAAGCAAUAUUACGGUCC | -2.8 ± 0.12 | -1.07 ± 0.12
CCCAAGCAAUAUUACGUACA | -2.94 ± 0.16 | -3.39 ± 0.23
GCACAGCAAUAUUACGGGCA | -1.84 ± 0.11 | -0.886 ± 0.094
UGAGAGCAAUAUUACGCUUU | -4.15 ± 0.29 | -1.96 ± 0.17
GUUCAGCAAUAUUACGUUAU | -0.292 ± 0.077 | -0.207 ± 0.099
CAACAGCAAUAUUACGGAAA | -3.2 ± 0.17 | -2.27 ± 0.18
AUUCAGCAAUAUUACGAUAU | -0.41 ± 0.057 | 0.146 ± 0.079
AACUAGCAAUAUUACGGCUA | -1.08 ± 0.11 | -1.22 ± 0.11
GCAAAGCAAUAUUACGUGAU | -0.863 ± 0.053 | -0.973 ± 0.075
AACAAGCAAUAUUACGUGUG | -1.69 ± 0.043 | -0.657 ± 0.05
UAUGAGCAAUAUUACGCCAA |  | -2.51 ± 0.37
ACAGAGCAAUAUUACGGCUA | -3.1 ± 0.23 | -1.41 ± 0.14
UUACAGCAAUAUUACGAAUC | -3.27 ± 0.27 | -2.13 ± 0.3
GCUAAGCAAUAUUACGAUGC | -3.28 ± 0.19 | -2.18 ± 0.18
UAACAGCAAUAUUACGCGCA | -0.471 ± 0.078 | 0.0314 ± 0.12
AGGAAGCAAUAUUACGAAUA | -2.74 ± 0.36 | -1.11 ± 0.27
GCCAAGCAAUAUUACGCCGU | -2.07 ± 0.087 | -1.45 ± 0.12
UUGAAGCAAUAUUACGGCCA | 0.0822 ± 0.12 | -0.046 ± 0.13
CUGUAGCAAUAUUACGAAUC | -3.03 ± 0.35 | 
CCUGAGCAAUAUUACGAGAA | -3.46 ± 0.4 | -1.79 ± 0.29
UUCCAGCAAUAUUACGUGAG | 0.114 ± 0.062 | 0.597 ± 0.08
UAAUAGCAAUAUUACGCGAG | -1.62 ± 0.14 | -1.46 ± 0.13
GGCAAGCAAUAUUACGGGCG | 0.0849 ± 0.086 | -0.132 ± 0.096
GCUUAGCAAUAUUACGCCGU | -2.31 ± 0.21 | -0.553 ± 0.18
UCAGAGCAAUAUUACGCACG | -3.39 ± 0.29 | -1.37 ± 0.21

Sequence | self-splicing fitness (ln) (30 °C) | self-splicing fitness (ln) (37 °C)
GUCGAGCAAUAUUACGGUUU | -1.86 ± 0.11 | -1.44 ± 0.13
GGCAAGCAAUAUUACGUAGC | -2.4 ± 0.33 | -2.24 ± 0.32
AAAGAGCAAUAUUACGUCAG | -4.01 ± 0.36 | -2.29 ± 0.32
GGUGAGCAAUAUUACGCUGA |  | -2.84 ± 0.48
AGUAAGCAAUAUUACGAAAC | -3.94 ± 0.36 | 
GUGAAGCAAUAUUACGAAUA | -1.91 ± 0.1 | -0.485 ± 0.23
AACUAGCAAUAUUACGUCUA | -0.702 ± 0.097 | -0.347 ± 0.1
AGCGAGCAAUAUUACGGCCC | -1.03 ± 0.28 | -0.383 ± 0.24
CUAUAGCAAUAUUACGUGCG | -1.19 ± 0.1 | -0.322 ± 0.13
GCACAGCAAUAUUACGAAGG | -1.31 ± 0.065 | -0.444 ± 0.096
UUAGAGCAAUAUUACGCGGC |  | -0.994 ± 0.26
UAGAAGCAAUAUUACGGUCA | -0.346 ± 0.095 | -0.338 ± 0.11
CAGGAGCAAUAUUACGGAUG | -2.46 ± 0.13 | -2.02 ± 0.17
AGCUAGCAAUAUUACGCAGC |  | -0.17 ± 0.24
UUCUAGCAAUAUUACGCCGG |  | -2.05 ± 0.37
UCCGAGCAAUAUUACGCGUC | -3.74 ± 0.37 | -1.53 ± 0.26
CCCGAGCAAUAUUACGUGUG | -3.24 ± 0.12 | -1.86 ± 0.098
AUUCAGCAAUAUUACGUGAC | -3.05 ± 0.44 | -1.84 ± 0.35
GACCAGCAAUAUUACGGCAA | -0.359 ± 0.067 | -0.32 ± 0.078
CAAGAGCAAUAUUACGGUGG | -2 ± 0.082 | -1.58 ± 0.11
AUGUAGCAAUAUUACGGCUA | -2.45 ± 0.22 | -2.14 ± 0.25
AAGGAGCAAUAUUACGUUCC | -3.48 ± 0.32 | -2.98 ± 0.35
UACAAGCAAUAUUACGUGUG | -2.96 ± 0.11 | -1.7 ± 0.1
GGUUAGCAAUAUUACGUGGG | -2.93 ± 0.2 | -2.54 ± 0.18
